Measurements published in US20240034757A1 (OXFORD UNIVERSITY INNOVATION, published 2024).
Like-named read-outs stand apart in the source and are kept apart here.

How the values were obtained:
CCL20_HUMAN = CCL20_HUMAN (human, UniProt P78556 27-96); assay: yeast surface display FACS
CXCL8_HUMAN = target: T1, CXCL8_HUMAN (human, UniProt P10145 28-99); assay: yeast surface display FACS
T1 sequence: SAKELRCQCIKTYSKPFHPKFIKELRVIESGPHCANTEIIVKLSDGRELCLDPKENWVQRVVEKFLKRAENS

CCL16_HUMAN = target: T2, CCL16_HUMAN (human, UniProt O15467 24-120); assay: BLI;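 also: biolayer interferometry on an Octet system: chemokines at several doses tested against tick chemokine-binding proteins, association, equilibrium and dissociation curves fitted to derive Kd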
T2 sequence: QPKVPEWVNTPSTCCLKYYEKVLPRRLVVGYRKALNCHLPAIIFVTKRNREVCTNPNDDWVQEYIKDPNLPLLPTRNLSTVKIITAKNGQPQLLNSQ

P1156_IXORI [1] = target: T3, P1156_IXORI (Ixodes ricinus, UniProt V5HBW0 29-108); assay: BLI
T3 sequence: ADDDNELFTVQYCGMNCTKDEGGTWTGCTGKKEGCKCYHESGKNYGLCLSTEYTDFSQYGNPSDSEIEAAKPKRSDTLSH

P1080_IXORI [2] = target: T4, P1080_IXORI (Ixodes ricinus, UniProt A0A090XBL6 20-118); assay: BLI
T4 sequence (A0A090XBL6 20-118): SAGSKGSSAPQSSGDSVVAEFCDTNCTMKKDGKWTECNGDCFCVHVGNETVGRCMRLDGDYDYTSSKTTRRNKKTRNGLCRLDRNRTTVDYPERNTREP

P1095_IXORI [3] = target: T5, P1095_IXORI (Ixodes ricinus, UniProt A0A0K8RCE3 24-112); assay: BLI
T5 sequence: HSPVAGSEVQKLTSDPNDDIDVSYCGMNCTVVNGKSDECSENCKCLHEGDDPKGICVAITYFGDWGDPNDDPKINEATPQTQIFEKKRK

P1096_IXORI [4] = target: T6, P1096_IXORI (Ixodes ricinus, UniProt A0A0K8RKE4 24-114); assay: BLI
T6 sequence: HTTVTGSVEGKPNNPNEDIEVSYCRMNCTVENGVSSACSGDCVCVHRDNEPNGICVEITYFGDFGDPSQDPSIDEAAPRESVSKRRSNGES

P1127_IXORI [5] = target: T7, P1127_IXORI (Ixodes ricinus, UniProt A0A0K8RJ67 29-108); assay: BLI
T7 sequence: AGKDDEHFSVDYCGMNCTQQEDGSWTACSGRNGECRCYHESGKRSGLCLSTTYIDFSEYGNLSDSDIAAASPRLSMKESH

P1132_IXORI [6] = target: T8, P1132_IXORI (Ixodes ricinus, UniProt V5GZ08 29-106); assay: BLI
T8 sequence: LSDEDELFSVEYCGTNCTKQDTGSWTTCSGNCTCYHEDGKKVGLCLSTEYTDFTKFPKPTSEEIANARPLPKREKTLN

P1134_IXORI [7] = target: T9, P1134_IXORI (Ixodes ricinus, UniProt A0A0K8RAI0 32-135); assay: BLI
T9 sequence: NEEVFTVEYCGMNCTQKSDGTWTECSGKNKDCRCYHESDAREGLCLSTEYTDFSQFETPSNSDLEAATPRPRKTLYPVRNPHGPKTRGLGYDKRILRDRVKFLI

P1166_IXORI [8] = target: T10, P1166_IXORI (Ixodes ricinus, UniProt A0A0K8RE99 25-110); assay: BLI
T10 sequence: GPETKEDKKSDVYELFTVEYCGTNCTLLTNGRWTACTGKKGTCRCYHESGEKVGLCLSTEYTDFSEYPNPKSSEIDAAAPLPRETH

P1168_IXORI [9] = target: T11, P1168_IXORI (Ixodes ricinus, UniProt A0A0K8RCU3 25-106); assay: BLI
T11 sequence: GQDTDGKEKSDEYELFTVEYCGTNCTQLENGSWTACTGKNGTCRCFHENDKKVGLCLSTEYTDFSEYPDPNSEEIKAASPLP

CCL5_HUMAN [10] = target: T12, CCL5_HUMAN (human, UniProt P13501 24-91); assay: yeast surface display FACS
T12 sequence: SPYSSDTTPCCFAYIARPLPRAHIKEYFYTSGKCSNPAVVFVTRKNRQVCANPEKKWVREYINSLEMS

CCL11_HUMAN = CCL11_HUMAN (human, UniProt P51671 24-97); assay: yeast surface display FACS
CCL11_HUMAN, sequence (P51671 24-97 limits assumed): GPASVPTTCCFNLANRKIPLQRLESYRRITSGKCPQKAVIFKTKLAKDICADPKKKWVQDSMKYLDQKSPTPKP

CCL18_HUMAN = target: T13, CCL18_HUMAN (human, UniProt P55774 21-89); assay: yeast surface display FACS
T13 sequence: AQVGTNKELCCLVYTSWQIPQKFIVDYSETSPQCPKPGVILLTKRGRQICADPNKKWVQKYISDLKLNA

CXCL12_HUMAN = CXCL12_HUMAN (human, UniProt P48061 22-89); assay: yeast surface display FACS
CXCL12_HUMAN, sequence (P48061 22-89 limits assumed): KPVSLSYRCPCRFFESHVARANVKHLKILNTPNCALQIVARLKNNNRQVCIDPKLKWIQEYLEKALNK

CCL17_HUMAN = target: T14, CCL17_HUMAN (human, UniProt Q92583 24-94); assay: yeast surface display FACS
T14 sequence: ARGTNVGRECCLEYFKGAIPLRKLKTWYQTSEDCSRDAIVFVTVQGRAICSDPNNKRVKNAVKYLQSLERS

P1080_IXORI [11] = target: T4, P1080_IXORI; assay: BLI [Cont.]
P1095_IXORI [12] = target: T5, P1095_IXORI; assay: BLI [Cont.]
P1096_IXORI [13] = target: T6, P1096_IXORI; assay: BLI [Cont.]
P1127_IXORI [14] = target: T7, P1127_IXORI; assay: BLI [Cont.]
P1128_IXORI = target: T15, P1128_IXORI (Ixodes ricinus, UniProt A0A0K8R6B3 19-90); assay: BLI [Cont.]
T15 sequence: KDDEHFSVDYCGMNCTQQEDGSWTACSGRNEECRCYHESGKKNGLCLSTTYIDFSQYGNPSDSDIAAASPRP

P1132_IXORI [15] = target: T8, P1132_IXORI; assay: BLI [Cont.]
P1134_IXORI [16] = target: T9, P1134_IXORI; assay: BLI [Cont.]
P1162_IXORI = target: T16, P1162_IXORI (Ixodes ricinus, UniProt A0A0K8RDJ1 29-99); assay: BLI [Cont.]
T16 sequence: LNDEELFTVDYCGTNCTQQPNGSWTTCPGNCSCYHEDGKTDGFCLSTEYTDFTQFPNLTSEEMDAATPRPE

P1166_IXORI [17] = target: T10, P1166_IXORI; assay: BLI [Cont.]
P1168_IXORI [18] = target: T11, P1168_IXORI; assay: BLI [Cont.]
P1170_IXORI = target: T17, P1170_IXORI (Ixodes ricinus, UniProt A0A0K8RD51 29-102); assay: BLI [Cont.]
T17 sequence: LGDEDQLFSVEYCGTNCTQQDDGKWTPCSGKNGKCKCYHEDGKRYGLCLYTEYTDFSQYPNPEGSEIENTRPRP

P1172_IXORI = target: T18, P1172_IXORI (Ixodes ricinus, UniProt V5I2G9 24-94); assay: BLI [Cont.]
T18 sequence: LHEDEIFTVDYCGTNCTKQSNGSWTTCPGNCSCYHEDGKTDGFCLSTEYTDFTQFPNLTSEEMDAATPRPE

P1174_IXORI = target: T19, P1174_IXORI (Ixodes ricinus, UniProt V5I3C5 28-104); assay: BLI [Cont.]
T19 sequence: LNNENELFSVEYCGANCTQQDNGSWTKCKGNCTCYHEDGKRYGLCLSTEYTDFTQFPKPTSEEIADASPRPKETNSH

P1229_IXORI = target: T20, P1229_IXORI (Ixodes ricinus, UniProt A0A0K8R4R9 32-108); assay: BLI [Cont.]
T20 sequence: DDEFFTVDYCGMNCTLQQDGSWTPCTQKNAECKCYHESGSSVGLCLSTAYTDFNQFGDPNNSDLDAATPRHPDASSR

P1156_IXORI [19] = target: T3, P1156_IXORI; assay: BLI [Cont.) C]
CCL5_HUMAN [20] = target: T12, CCL5_HUMAN; assay: yeast surface display FACS; remark: listed apart in the source

CCL20_HUMAN, sequence (P78556 27-96 limits assumed): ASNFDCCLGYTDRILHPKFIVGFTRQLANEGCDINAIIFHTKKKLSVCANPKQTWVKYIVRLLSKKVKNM

B1: P1015_AMBCA (other)
chain: EEAPGPAPGCGEPEPTPPKPRRHGIVTNVNSCNSTILVWNGKEFPALCKVRCPHKSYRVSDFEPCLKFTNRRFLQERKDETPYKCKLGFCRHGTCITSEHSRKVPCKVPADRLDPSE
- binding result (CCL20_HUMAN): binds
- binding result (CXCL8_HUMAN): binds

B2: P974_AMBCA (other)
chain: ENTQQEEQDYDYGTDTCPFPVLANKTNKAKFVGCHQKCNGGDQKLTDGTACYVVERKVWDRMTPMLWYECPLGECKNGVCEDLRKKEDCRKGNGEEK
- Kd (CCL16_HUMAN): 11 nM

B3: P546_AMBCA (other)
chain: ENTQQEEEDYDYGTDTCPFPVLANKTNKAKFVGCHQKCNGGDQKLTDGTACYVVERKVWDRMTPMLWYSCPLGECKNGVCEDLRKKEECRKGNGEEK
- Kd (CCL16_HUMAN): 6.7 nM

B4: CXCL14_HUMAN (ligand)
chain: SKCKCSRKGPKIRYSDVKKLEMKPKYPHCEEKMVIITTKSVSRYRGQEHCLHPKLQSTKRFIKWYNAWNEKRRVYEE
- binding result (P1156_IXORI [1]): no binding (tested: 300 nM)
- binding result (P1080_IXORI [2]): no binding (tested: 300 nM)
- binding result (P1095_IXORI [3]): no binding (tested: 300 nM)
- binding result (P1096_IXORI [4]): no binding (tested: 300 nM)
- binding result (P1127_IXORI [5]): no binding (tested: 300 nM)
- binding result (P1132_IXORI [6]): no binding (tested: 300 nM)
- binding result (P1134_IXORI [7]): no binding (tested: 300 nM)
- binding result (P1166_IXORI [8]): no binding (tested: 300 nM)
- binding result (P1168_IXORI [9]): no binding (tested: 300 nM)

B5: P1215_AMBPA (other)
chain: KTDTKNAAGELPPKVVIPGCEDPATTKAPLPDEPPYYGITIDKDGCQRKVLGSSQRQQRKVQNGRKLDGKKRGRRPVFVDLELTVDCKRKCNGTYSQLPDGENCLVSDGYPYGRWGTIKGGCYQGNCSSGQCHRGEKKVNCYLPKNITNDVPKSLNLAE
- binding result (CCL5_HUMAN [10]): binds
- binding result (CCL11_HUMAN): binds
- binding result (CCL18_HUMAN): binds
- binding result (CXCL12_HUMAN): binds

B6: P1252_AMBAM (other)
chain: RGGAASVPANASIPGCGDAQTTPAAPEDQPKHYVVYRDGNGCEVKIIGTWMTTEDYNCLPDTFRKNRAPHGKVKLPASCKKTCGNAVQNLKDGTPCRKVFGDLGRRRNLIKNGCLVGACQSGLCVSGNRTISCYIPPNSTDTRATPGSFAE
- binding result (CCL17_HUMAN): binds
- binding result (CCL20_HUMAN): binds
- binding result (CXCL8_HUMAN): binds

B7: CXCL7_HUMAN (ligand)
chain: AELRCMCIKTTSGIHPKNIQSLEVIGKGTHCNQVEVIATLKDGRKICLDPDAPRIKKIVQKKLAGDESAD
- binding result (P1080_IXORI [11]): no binding (tested: 300 nM)
- binding result (P1095_IXORI [12]): no binding (tested: 300 nM)
- binding result (P1096_IXORI [13]): no binding (tested: 300 nM)
- binding result (P1127_IXORI [14]): no binding (tested: 300 nM)
- binding result (P1128_IXORI): no binding (tested: 300 nM)
- binding result (P1132_IXORI [15]): no binding (tested: 300 nM)
- binding result (P1134_IXORI [16]): no binding (tested: 300 nM)
- binding result (P1162_IXORI): no binding (tested: 300 nM)
- binding result (P1166_IXORI [17]): no binding (tested: 300 nM)
- binding result (P1168_IXORI [18]): no binding (tested: 300 nM)
- binding result (P1170_IXORI): no binding (tested: 300 nM)
- binding result (P1172_IXORI): no binding (tested: 300 nM)
- binding result (P1174_IXORI): no binding (tested: 300 nM)
- binding result (P1229_IXORI): no binding (tested: 300 nM)
- binding result (P1156_IXORI [19]): no binding (tested: 300 nM)

B8: P993_AMBPA (other)
chain: HRHYDPNEPCLIAGLKTPRDALPAGCRYDCMIKKNQKLRDGLLCLDVPEKVVKRMVNYLNYSCPLGTCRKGICKRKHRNVRCQKYPVFYMSPPK
- binding result (CCL5_HUMAN [20]): binds
- binding result (CCL17_HUMAN): binds
- binding result (CCL20_HUMAN): binds
